Among the data in patent publication US20170232076A1 are Kd values, retold here.

In assay [1] the target is cation-independent mannose-6-phosphate receptor (CI-M6PR) on cells overexpressing CI-M6PR. The experiment in a line: cellular uptake assay on cells overexpressing CI-M6PR, intracellular Naglu activity read-out.
Target sequence in this assay (P11717 41-2491): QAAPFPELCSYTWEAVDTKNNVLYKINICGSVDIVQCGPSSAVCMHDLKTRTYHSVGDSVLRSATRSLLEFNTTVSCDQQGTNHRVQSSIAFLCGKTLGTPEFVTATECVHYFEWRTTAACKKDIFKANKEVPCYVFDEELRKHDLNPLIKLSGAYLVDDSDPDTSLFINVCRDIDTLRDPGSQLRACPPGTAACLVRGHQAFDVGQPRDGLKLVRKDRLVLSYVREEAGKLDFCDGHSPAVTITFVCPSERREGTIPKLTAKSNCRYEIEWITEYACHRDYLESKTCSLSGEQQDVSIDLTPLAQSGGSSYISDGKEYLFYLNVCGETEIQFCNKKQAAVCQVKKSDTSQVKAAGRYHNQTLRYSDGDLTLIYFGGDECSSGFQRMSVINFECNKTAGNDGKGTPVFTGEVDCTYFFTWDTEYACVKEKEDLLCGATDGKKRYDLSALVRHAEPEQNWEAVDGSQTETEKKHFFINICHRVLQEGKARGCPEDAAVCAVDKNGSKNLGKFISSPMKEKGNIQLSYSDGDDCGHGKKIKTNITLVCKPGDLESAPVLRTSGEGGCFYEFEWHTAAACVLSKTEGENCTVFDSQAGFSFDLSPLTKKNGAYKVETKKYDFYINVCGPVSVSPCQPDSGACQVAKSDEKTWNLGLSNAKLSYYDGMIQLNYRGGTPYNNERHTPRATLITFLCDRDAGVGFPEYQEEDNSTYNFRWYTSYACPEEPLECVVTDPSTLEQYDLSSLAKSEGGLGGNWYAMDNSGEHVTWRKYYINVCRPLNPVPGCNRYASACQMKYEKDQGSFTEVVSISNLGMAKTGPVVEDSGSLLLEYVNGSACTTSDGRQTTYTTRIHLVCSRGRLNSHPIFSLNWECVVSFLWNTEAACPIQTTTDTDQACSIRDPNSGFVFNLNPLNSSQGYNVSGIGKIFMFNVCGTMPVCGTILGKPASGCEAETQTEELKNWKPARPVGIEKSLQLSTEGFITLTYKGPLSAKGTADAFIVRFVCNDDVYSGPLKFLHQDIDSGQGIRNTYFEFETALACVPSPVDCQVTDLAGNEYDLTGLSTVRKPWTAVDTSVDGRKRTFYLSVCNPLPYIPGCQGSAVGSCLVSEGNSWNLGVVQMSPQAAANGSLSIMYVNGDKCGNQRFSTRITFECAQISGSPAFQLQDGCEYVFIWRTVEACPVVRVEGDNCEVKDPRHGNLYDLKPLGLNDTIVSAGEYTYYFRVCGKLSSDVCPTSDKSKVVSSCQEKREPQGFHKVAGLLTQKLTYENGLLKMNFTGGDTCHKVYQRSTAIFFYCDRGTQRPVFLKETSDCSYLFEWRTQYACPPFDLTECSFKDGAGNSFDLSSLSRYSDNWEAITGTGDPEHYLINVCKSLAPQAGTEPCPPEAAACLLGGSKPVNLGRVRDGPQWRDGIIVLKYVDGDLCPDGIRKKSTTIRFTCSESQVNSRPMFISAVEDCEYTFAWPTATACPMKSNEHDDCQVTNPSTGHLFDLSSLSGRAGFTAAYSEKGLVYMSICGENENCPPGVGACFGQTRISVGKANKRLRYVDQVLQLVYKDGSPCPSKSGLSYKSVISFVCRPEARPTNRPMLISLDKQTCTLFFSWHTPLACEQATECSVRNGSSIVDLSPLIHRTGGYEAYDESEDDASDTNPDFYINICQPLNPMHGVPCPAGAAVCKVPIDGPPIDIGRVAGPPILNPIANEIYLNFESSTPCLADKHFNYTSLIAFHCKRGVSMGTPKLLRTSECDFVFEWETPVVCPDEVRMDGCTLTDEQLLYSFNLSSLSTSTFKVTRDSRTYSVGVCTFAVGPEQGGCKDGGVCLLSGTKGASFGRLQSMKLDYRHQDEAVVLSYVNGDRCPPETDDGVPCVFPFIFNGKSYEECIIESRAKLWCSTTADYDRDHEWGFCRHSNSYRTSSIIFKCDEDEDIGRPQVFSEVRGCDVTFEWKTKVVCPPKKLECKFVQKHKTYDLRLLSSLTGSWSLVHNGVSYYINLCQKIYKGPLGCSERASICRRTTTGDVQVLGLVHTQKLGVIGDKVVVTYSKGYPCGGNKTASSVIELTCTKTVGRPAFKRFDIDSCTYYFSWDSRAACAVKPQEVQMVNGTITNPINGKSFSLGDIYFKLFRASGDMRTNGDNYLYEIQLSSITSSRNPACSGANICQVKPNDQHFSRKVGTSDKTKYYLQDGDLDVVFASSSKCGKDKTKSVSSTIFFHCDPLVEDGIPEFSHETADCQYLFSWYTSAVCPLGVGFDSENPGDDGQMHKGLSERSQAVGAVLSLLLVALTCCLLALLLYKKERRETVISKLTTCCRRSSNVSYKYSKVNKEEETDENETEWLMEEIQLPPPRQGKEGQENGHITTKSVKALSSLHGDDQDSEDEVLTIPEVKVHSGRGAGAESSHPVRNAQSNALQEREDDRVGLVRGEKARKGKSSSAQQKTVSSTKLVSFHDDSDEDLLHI
Assay [2] shares this target. The experiment in a line: cellular uptake assay on cells overexpressing CI-M6PR, intracellular I2S enzyme activity read-out.

Turning to “Naglu-LIF fusion protein (produced in HT-1080 cells) (enzyme)”, the Kd in assay [1] was 178 nM.

Turning to “Naglu-LIF fusion protein produced in HT-1080 cells overexpressing GNPT (enzyme)”, the Kd in assay [1] stood at 15 nM.

As to “recombinant iduronate 2-sulfatase (I2S) produced in HT-1080 cells co-overexpressing GNPT (from UniProt P22304 26-550) (enzyme)”, the Kd in assay [2] worked out at 1.65 nM.

Take “recombinant iduronate 2-sulfatase (I2S) produced in HT-1080 cells overexpressing I2S alone (from UniProt P22304 26-550) (enzyme)”: the Kd in assay [2] came out at 27.9 nM.

By Kd is commonly meant the free concentration of one partner at which half of the binding sites on the other are occupied at equilibrium, for simple one-to-one binding.
